Results reported in publication PMC7595626.

Biological target: His6-tagged Casp8p41 protein
Experiment: SPR; Casp8p41 immobilised on a CM5 chip (6000-7000 RU); BCL2 or phospho-S70-BCL2 flowed over; 25°C; 150 mM NaCl, 0.05 mM EDTA, 0.005% Polysorbate 20, 10 mM Hepes pH 7.4; steady state affinity fit, 1:1 model; Biacore T200

Substance	Kd
BCL2ΔTM-His6 (domain or fragment)	260 nM
phospho-S70-BCL2 (domain or fragment)	40 nM
